The values below come from doi:10.1101/2024.11.13.623393.

For the experiment, the target named is microtubule polymers (alpha/beta tubulin). The experiment is described as follows: co-sedimentation.

B1: Smc5-2KE hinge domain (residues 215 to 885, K624E K631E) (domain or fragment)
chain: LRELQGNEQSLQKDLDFKKAKIVHLRQESDKLRKSVESLRDFQNKKGEIELHSQLLPYVKVKDHKEKLNIYKEEYERAKANLRAILKDKKPFANTKKTLENQVEELTEKCSLKTDEFLKAKEKINEIFEKLNTIRDEVIKKKNQNEYYRGRTKKLQATIISTKEDFLRSQEILAQTHLPEKSVFEDIDIKRKEIINKEGEIRDLISEIDAKANAINHEMRSIQRQAESKTKSLTTTDKIGILNQDQDLKEVRDAVLMVREHPEMKDKILEPPIMTVSAINAQFAAYLAQCVDYNTSKALTVVDSDSYKLFANPILDKFKVNLRELSSADTTPPVPAETVRDLGFEGYLSDFITGDKRVMKMLCQTSKIHTIPVSRRELTPAQIKKLITPRPNGKILFKRIIHGNRLVDIEQSAYGSEQVFPTDVSIKQTNFYQGSIMSNEQKIRIENEIINLKNEYNDRKSTLDALSNQKSGYRHELSELASKNDDINREAHQLNEIRKKYTMRKSTIETLREKLDQLKREARKDVSQKIKDIDDQIQQLLLKQRHLLSKMASSMKSLKNCQKELISTQILQFEAQNMDVSMNDVIGFFNEREADLKSQYEDKKKFVKEMRDTPEFQSWMREIRSYDQDTKEKLNKVAEKYEEEGNFNLSFVQDVLDKLESEIAMVNHDES
Regarding B1, the fold reduction in binding affinity against wild-type Smc5 worked out at 3 fold.
